Assay results taken from patent US20240287172A1 (SCIRHOM, published 2024).
Numbering of substitutions follows the chain as printed.

B1: antibody 48 (antibody, V domains shown)
VH: QVQLQQSGTELVRPGTSVKVSCKASGYAFTNYLIEWVKQRPGQGLEWIGVINPGSGFTKYNEKFKGKATLTADKSSSTVYMHLSSLTSEDSAVYFCARGLYRAMDYWGQGTSVTVSS
VL: DIQMTQSPASQSASLGESVTITCLASQTIATWLAWYQQKPGKSPQLLIYGATTLADGVPSRFSGGGSGTKFSFKISSLQAEDFVSYYCQQLYSTPYTFGGGTKLEIK
notes: mouse IgG, kappa light chain; also called clone #48; purified antibody 48
B2: antibody 50 (antibody, V domains shown)
VH: B1 VH with T9A, T16A, T30S, V79A, H82Q
VL: B1 VL with A30G, G50A, T52A, T53S, S85N, L91I
notes: mouse IgG, kappa light chain; also called clone #50; purified antibody 50
B3: antibody 22 (antibody, V domains shown)
VH: QVTLKESGPGILQPSQTLSLTCSFSGFSLSTFGMGVGWIRQPSGKGLEWLAHIWWDDEKYYNSALKSRLTISKATSKNQVFLKIANVDTADTATYYCARISNYGSNYWYFNVWGTGTTVTVSS
VL: QVVLTQSPALMSASPGEKVTMTCSAGSSVSYMYWYQQKPGSSPRVLIYDTSNLASGVPARFTGSGSGTSYSLTISRMEAEDAATYYCQQWNSYPLTFGAGTKLELK
notes: mouse IgG, kappa light chain; also called clone #22; purified antibody 22
B4: antibody 42 (antibody, V domains shown)
VH: B3 VH with F24L, M34R, S63P, A74D, K83R, S101Q, N111D
VL: LIVLTQSPAIMSASPGEKVTMTCGATSRISYMFWYQQKPGSSPRVLIYDTSNLASGVPVRFSGSGSGTSYSLTISRVEAEDVATYYCQQWNSYPLTFGAGTKLELK
notes: mouse IgG, kappa light chain; also called clone #42; purified antibody 42

Experiments:
[1] = biological target: T1, hiR2-FL-T522V-T7 (human, UniProt Q6PJF5 1-856); experiment: FACS, MEF-DKO cells, 3 µg/ml
T1 sequence: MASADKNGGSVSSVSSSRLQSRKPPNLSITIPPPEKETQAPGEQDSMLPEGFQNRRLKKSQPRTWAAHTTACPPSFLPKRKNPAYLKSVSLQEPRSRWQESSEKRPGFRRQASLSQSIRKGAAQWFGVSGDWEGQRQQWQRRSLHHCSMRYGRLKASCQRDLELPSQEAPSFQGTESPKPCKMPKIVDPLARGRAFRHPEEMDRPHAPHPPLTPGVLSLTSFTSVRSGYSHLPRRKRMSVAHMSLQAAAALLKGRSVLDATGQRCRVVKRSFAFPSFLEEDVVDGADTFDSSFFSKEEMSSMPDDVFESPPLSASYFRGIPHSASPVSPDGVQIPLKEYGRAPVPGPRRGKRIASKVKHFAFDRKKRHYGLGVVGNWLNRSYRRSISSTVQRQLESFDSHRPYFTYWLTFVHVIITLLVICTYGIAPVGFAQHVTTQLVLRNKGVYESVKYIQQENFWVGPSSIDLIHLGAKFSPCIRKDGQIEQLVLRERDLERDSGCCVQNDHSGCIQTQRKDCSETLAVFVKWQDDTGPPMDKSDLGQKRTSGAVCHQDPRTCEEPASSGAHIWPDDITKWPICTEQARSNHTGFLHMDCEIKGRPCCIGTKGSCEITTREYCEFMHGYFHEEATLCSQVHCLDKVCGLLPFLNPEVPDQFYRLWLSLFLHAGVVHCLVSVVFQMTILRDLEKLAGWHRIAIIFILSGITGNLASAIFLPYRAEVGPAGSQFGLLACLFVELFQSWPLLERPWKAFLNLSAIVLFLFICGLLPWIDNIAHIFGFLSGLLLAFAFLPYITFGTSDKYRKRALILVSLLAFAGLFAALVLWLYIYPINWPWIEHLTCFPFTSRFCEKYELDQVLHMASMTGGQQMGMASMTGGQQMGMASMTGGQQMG

[2] = biological target: T2, human iRhom1, endogenously expressed (human, UniProt Q96CC6 1-855); experiment: FACS, RH-30 cells; via representative antibody 16
T2 construct: also called iRhom1 on RH-30 cells
T2 sequence: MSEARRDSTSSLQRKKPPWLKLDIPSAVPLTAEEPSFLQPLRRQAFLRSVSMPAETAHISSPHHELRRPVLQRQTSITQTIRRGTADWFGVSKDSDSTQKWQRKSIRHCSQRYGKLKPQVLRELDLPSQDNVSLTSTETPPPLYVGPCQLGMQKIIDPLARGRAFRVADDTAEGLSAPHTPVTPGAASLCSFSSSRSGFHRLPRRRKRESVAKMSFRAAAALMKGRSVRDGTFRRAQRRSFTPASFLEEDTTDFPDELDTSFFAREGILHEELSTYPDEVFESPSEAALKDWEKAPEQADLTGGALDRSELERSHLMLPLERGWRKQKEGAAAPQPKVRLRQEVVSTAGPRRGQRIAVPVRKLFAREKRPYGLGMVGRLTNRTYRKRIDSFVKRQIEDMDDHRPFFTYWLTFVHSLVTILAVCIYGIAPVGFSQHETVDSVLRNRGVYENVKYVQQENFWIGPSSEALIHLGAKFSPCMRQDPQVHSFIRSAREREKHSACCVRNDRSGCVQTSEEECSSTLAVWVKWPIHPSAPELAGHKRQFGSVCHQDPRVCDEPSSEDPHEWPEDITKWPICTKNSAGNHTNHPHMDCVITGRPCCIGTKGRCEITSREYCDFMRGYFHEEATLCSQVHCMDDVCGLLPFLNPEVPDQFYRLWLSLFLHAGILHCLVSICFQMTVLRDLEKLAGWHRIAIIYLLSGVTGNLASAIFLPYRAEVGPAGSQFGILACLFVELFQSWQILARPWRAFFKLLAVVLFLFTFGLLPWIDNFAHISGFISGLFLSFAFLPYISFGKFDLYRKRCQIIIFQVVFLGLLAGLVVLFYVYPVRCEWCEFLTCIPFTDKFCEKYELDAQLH
Procedure: In this study, binding specificity analyses of the hybridoma supernatant leading to the antibody 16 of the invention as a representative example of antibodies 3, 16, 22 and 42 of the invention as well as of the antibody 16 of the invention as a representative example of antibodies 16, 22 and 42 of the invention in cell lines endogenously expressing iRhom2 were performed. The studies were conducted on RPMI-8226 cells, a human B lymphocytic cell line endogenously expressing iRhom2 but being endogenously negative for iRhom1, on THP-1 cells, a human monocytic cell line endogenously expressing both iRhom2 and iRhom1 and on RH-30 cells, a human […] cell line endogenously negative for iRhom2 but endogenously expressing iRhom1.
In brief, human RPMI-8226 cells (Deutsche Sammlung von Mikroorganismen und Zellkulturen, Germany), THP-1 cells (American Type Culture Collection, USA) and RH-30 cells (Deutsche Sammlung von Mikroorganismen und Zellkulturen, Germany) were harvested with 10 mM EDTA in PBS, washed and resuspended in FACS buffer (PBS, 3% FBS, 0.05% sodium azide), and seeded in Nunc U-bottom 96-well plates (Thermo Fisher Scientific, USA) at approximately 2×10⁵ cells per well. […] Finally, cells were resuspended in 150 μl per well of FACS buffer and analyzed using a BD Accuri™ C6 Plus flow cytometer (Becton Dickinson, Germany).

Binder | loss of binding vs wild type [1] | binding result [2]
B1 | ≥ 30% | 
B2 | ≥ 30% | 
B3 |  | no binding (tested: 3 µg/ml)
B4 |  | no binding (tested: 3 µg/ml)
